Test [1] deals with methanol dehydrogenase α subunit from Methylococcus capsulatus (Bath) (Methylococcus capsulatus (Bath)). In words: SEC-MALS.
Test [2] shares this target. As to the kind of experiment: SEC.
In test [3] the target is methanol dehydrogenase from Methylococcus capsulatus (Bath), α2β2 dimer (Methylococcus capsulatus (Bath)). As to the kind of experiment: BLI.

The record followed here is PMC4188263.

In the case of “methanol dehydrogenase α subunit from Methylococcus capsulatus (Bath) (natural protein)”, the stoichiometry N in test [1] and in test [2] was 2 each time.

“spmoB, truncated recombinant periplasmic domains of M. capsulatus (Bath) pMMO subunit pmoB (domain or fragment)” displayed a Kd in test [3] of 9 µM.
